{"source": "patent US20100150938A1", "about": "“METHODS AND COMPOSITIONS FOR REDUCING INFLAMMATION AND TREATING INFLAMMATORY DISORDERS” (UNIVERSITY OF MASSACHUSETTS, priority 2008, published 2010)", "key": {"CAD mouse neuronal cells": {"system": "CAD mouse neuronal cells", "assay": "Neurotoxicity assay, CAD mouse neuronal cells with or without microglia", "type": "cell-based", "protocol": "For assessment of microglia-induced neurotoxicity, CAD mouse neuronal cells^47 were seeded on poly-L-lysine coated glass cover slips and grown in F12/DMEM supplemented with ciprofloxacin (Cellgro, Manassas, Va.) and 10% fetal calf serum (Hyclone, Logan, Utah) for 24 h. Differentiation was induced by withdrawal of serum for 48 h Immortalized microglia from wildtype or caspase-1^−/− mice were added in serum free medium to obtain mixed neuronal/microglial cultures and immediately stimulated. 72 h after stimulation with Aβ or media, cells were fixed, stained for the neuron-specific marker TuJ-1 and microglial marker CD11b, and imaged by confocal microscopy (Leica SP2 AOBS). Caspase-1 activity in microglial cells was assessed using the caspase-1 FLICA™ kit (Immunochemistry Technologies, Bloomington, Minn.) according to the manufacturer's instructions."}, "mouse microglia": {"system": "mouse microglia", "assay": "IL-1β release from LPS-primed mouse microglia (ELISA)", "type": "cell-based", "details": "LPS-primed primary and immortalized mouse microglia, 10 μM", "protocol": "For primary cultures, bone marrow-derived macrophages and microglia were isolated as described^42,43 and cultured in DMEM supplemented with L-glutamine, ciprofloxacin (Cellgro, Manassas, Va.) and 10% fetal calf serum (Hyclone, Logan, Utah) Immortalized macrophage and microglial cell lines were generated using J2 recombinant retrovirus (carrying v-myc and v-raf oncogenes)^44,45. Briefly, primary bone marrow cells were incubated in L929 conditioned medium for 3-4 days to induce macrophage differentiation. Cells were then infected with J2 recombinant retrovirus and maintained in culture until cells were growing in the absence of conditioned medium. Similarly, primary mixed glial cultures were cultured until fully confluent. After two consecutive infections with J2 retrovirus, cells were maintained in normal medium until growth of microglial cells in colonies was observed. The semi-adherent colonies of microglial cells were washed off and cultured in new flasks. […] Microglial cell lines form wild type (C57/BL6), Caspase-1^−/− and IL-IR^−/− mice as well as macrophage cell lines from wild type (C57BL6), NALP3 -, IPAF- and ASC-deficient mice were generated and used for experiments as indicated.\nStimulations were carried out in serum free DMEM medium. Microglial cells and macrophages were primed with 100 U/ml IFNγ (Griess assay, TNF ELISA, real-time quantitative PCR) or 100 ng/ml ultrapure LPS (IL-1β ELISA, FLICA, ASC-CFP microglia cell line assay, Western blot) 1-3 h prior to stimulation with Aβ, revAβ, zymosan, ATP or transfection with dAdT.\nCell culture supernatants were assayed for IL-1β and TNFα using ELISA kits from R&D Systems (Minneapolis, Minn.) according to the manufacturer's instructions. Nitric oxide was measured by Griess reaction of nitrites accumulated in the supernatants using chemicals from Sigma."}}}
{"substance": "Aβ 1-42 peptide", "values": [{"measurement": "neuronal cell death", "setting": "CAD mouse neuronal cells; mixed neuronal/microglial cultures with wild type microglia, Aβ 10 μM, 72 h", "value": "widespread neuronal cell death"}, {"measurement": "effects on neuronal cells", "setting": "CAD mouse neuronal cells; neuronal mono-culture", "value": "only minimal morphological and quantitative effects"}, {"measurement": "IL-1β release into supernatants induced by the peptide", "setting": "mouse microglia", "value": "time-dependent release of IL-1β"}, {"measurement": "IL-1β release into supernatants induced by the peptide", "setting": "mouse microglia; listed as fibrillar Aβ", "value": "early and pronounced IL-1β release"}]}
